For experiment [1], the target named is T1, native human NRP-1 on the cell surface (human, UniProt O14786 22-923).
T1 construct: whole, on cells; endogenous protein; isoform and glycosaminoglycan state on the cells not defined; also called native NRP-1 on MDA-MB-231 cells; native form of NRP-1 protein on the CTCs cell surface
Description: flow cytometry, MDA-MB-231 cells, 10 ug/ml, +heparinase. For orientation: Flow cytometry measures light scatter and fluorescence of single cells or particles in a stream.

The target in experiment [2] is T2, NRP-1 peptide (Npep).
T2 sequence (peptide): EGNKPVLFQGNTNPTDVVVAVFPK
Description: ELISA, antibody 10 µg/ml, 2 µg immobilised Npep. Background: ELISA stands for enzyme-linked immunosorbent assay.

In experiment [3] the target is recombinant human NRP-1 (3870-N1-025, Bio-Techne) (human) (UniProt O14786). Description: ELISA, antibody 10 µg/ml, 1 µg immobilised human NRP-1.
Experiment [4] has as its target T1, native human NRP-1 on the cell surface. Description: flow cytometry, CTC cells mix, 50 ug/ml.
The target is the same in experiment [5]. Description: flow cytometry, MDA-MB-231 cells, 10 ug/ml, -heparinase.
For experiment [6] the target is unchanged. Description: flow cytometry, CTC cells mix, 10 ug/ml.
The target of experiment [7] is recombinant murine NRP-1 (5994-N1-050, Bio-Techne) (murine) (UniProt P97333). Description: ELISA, antibody 10 µg/ml, 1 µg immobilised murine NRP-1.
recombinant murine NRP-1 (5994-N1-050, Bio-Techne) (murine), sequence (P97333 22-856): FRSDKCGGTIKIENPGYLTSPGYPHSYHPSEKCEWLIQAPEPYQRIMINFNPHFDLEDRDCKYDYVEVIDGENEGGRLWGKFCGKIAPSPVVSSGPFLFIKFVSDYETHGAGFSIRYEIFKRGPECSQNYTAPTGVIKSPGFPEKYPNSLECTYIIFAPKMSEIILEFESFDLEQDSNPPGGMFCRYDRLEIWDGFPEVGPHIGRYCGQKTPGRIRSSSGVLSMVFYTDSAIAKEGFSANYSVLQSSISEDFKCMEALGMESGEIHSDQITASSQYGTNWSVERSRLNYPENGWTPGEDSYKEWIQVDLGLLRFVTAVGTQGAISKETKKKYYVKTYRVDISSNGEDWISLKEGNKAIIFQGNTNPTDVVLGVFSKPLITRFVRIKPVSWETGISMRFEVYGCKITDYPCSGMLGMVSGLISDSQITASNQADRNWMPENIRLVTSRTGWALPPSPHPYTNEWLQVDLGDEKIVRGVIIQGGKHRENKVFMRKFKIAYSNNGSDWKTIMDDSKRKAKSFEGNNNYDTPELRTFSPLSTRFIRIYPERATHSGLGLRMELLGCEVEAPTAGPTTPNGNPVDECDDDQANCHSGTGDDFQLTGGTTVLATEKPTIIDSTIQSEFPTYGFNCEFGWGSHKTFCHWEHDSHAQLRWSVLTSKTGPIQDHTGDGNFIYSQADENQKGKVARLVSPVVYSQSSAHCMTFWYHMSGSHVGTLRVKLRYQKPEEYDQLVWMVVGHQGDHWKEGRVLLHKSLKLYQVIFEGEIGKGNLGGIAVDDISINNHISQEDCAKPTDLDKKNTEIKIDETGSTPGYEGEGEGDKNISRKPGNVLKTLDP
In experiment [8] the target is T1, native human NRP-1 on the cell surface. Description: flow cytometry, CTC cells mix, 25 ug/ml.
For experiment [9] the target is unchanged. Description: flow cytometry, MDA-MB-231 cells, 40 ug/ml, -chondroitinase.
Experiment [10] has the same target. Description: flow cytometry, MDA-MB-231 cells, 40 ug/ml, +chondroitinase.
Experiment [11] has as its target T3, recombinant murine NRP-1 (5994-N1-050, Bio-Techne) (murine, UniProt P97333 22-856).
T3 construct: extracellular domain; bought protein; also called mouse recombinant NRP-1
Description: ELISA, antibody 10 µg/ml, 1 µg immobilised murine NRP-1.

Experiment [12] concerns the target T1, native human NRP-1 on the cell surface. Description: flow cytometry, MDA-MB-231 cells, 40 ug/ml, -chondroitinase. As to the method: (§1) Chondroitinase (C2905, Sigma) was reconstituted in a 0.01% BSA aqueous solution. The MDA-MB-231 cells were treated with chondroitinase (1 U/ml) for 2 hours at 37° C. The cells were detached using cell dissociation solution non-enzymatic (C5914, Sigma). 300,000 cells per condition were washed with 2% FBS in PBS and then incubated with different antibodies of interest or their respective isotype controls at 40 μg/ml for 30 min at 4° C. After wash, an Alexa 488-conjugated anti-human immunoglobulin antibody (20022-1, Biotium) was added at 10 μg/ml for 30 min at 4° C. After a final wash, fluorescence, size and granularity of cells were measured by the LSR Fortessa cytometer (BD Biosciences).
This is another data set of the same source.

The target is the same in experiment [13]. Description: flow cytometry, MDA-MB-231 cells, 10 ug/ml, with against without heparinase.
For experiment [14] the target is unchanged. Description: flow cytometry, MDA-MB-231 cells, 10 ug/ml, -heparinase. This is another data set of the same source.
In experiment [15] the target is T4, recombinant human NRP-1 (3870-N1-025, Bio-Techne) (human, UniProt O14786 22-856).
T4 construct: extracellular domain; bought protein; also called human recombinant NRP-1
Description: ELISA, antibody 10 µg/ml, 1 µg immobilised human NRP-1.

Experiment [16] deals with T1, native human NRP-1 on the cell surface. Description: flow cytometry, MDA-MB-231 cells, 40 ug/ml, +chondroitinase. As to the method: as §1
This is another data set of the same source.

Experiment [17] has the same target. Description: flow cytometry, MDA-MB-231 cells, 40 ug/ml, with against without chondroitinase. As to the method:
as §1

For experiment [18], the target named is T5, NRP-1 peptide (Npep).
T5 construct: also called synthetic peptide Npep
T5 peptide: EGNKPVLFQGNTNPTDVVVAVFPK
Description: ELISA, antibody 10 µg/ml, 2 µg immobilised Npep.

Experiment [19] addresses T1, native human NRP-1 on the cell surface. Description: flow cytometry, MDA-MB-231 cells, 10 ug/ml, +heparinase. This is another data set of the same source.
Experiment [20] deals with native human NRP-1 on the cell surface (human) (UniProt O14786). Description: flow cytometry, MDA-MB-231 cells, 10 ug/ml, with against without heparinase.
Experiment [21] has the same target. Description: flow cytometry, MDA-MB-231 cells, 10 ug/ml, +heparinase.
The target is the same in experiment [22]. Description: flow cytometry, MDA-MB-231 cells, 40 ug/ml, with against without chondroitinase.
The target is the same in experiment [23]. Description: flow cytometry, MDA-MB-231 cells, 10 ug/ml, -heparinase.
Experiment [24] shares this target. Description: flow cytometry, MDA-MB-231 cells, 40 ug/ml, -chondroitinase.
For experiment [25] the target is unchanged. Description: flow cytometry, MDA-MB-231 cells, 40 ug/ml, +chondroitinase.

Like-named read-outs stand apart in the source and are kept apart here.

T3 sequence (P97333 22-856): as the sequence (P97333 22-856) above

As for hIgG4 isotype control (antibody), the values for the percentage of binding in experiment [1], in experiment [5] and in [9] were 0.24%, 0.2% and 0.47%, respectively. The Absorbance with NRP-1 peptide (Npep) [2] amounted to 0.055; in experiment [3], 0.073; in [7], 0.064. For the same molecule, the percent of bound cells in experiment [4] was 4.04%; in [6], 2.04%; in experiment [8] it was 3.3%.

As for mIgG2b isotype control (antibody), the percentage of binding in [1] was determined as 0.28%; in experiment [5] it was 0.086%; in experiment [9] it was 0.45%; in [10], 0.66%. Moreover, the values for the percent of bound cells in experiment [4], in [6] and in experiment [8] were 14.4%, 3.65% and 6.66%, respectively.

Regarding hIgG1 isotype control (antibody), the percentage of binding in experiment [1] was determined as 0.14%; in [5], 0.17%; in [9] it was 0.1%; in [10], 0.063%. Further, the Absorbance in the experiment with NRP-1 peptide (Npep) [2] was found to be 0.05; in [3], 0.073; in experiment [7] it was 0.084.

B1: variant 8 a-NRP1_LEP n° 1 (antibody, V domains shown)
VH: EVQLVESGGGLVQPGGSLRLSCAASGFTFSSYSMHWVRQAPGKGLEWVSYISSGSSTIHYADSVKGRFTISRDNAKNSLYLQMNSLRAEDTAVYYCARRHYGSSRYWYFDVWGQGTTVTVSS
VL: EIVLTQSPATLSLSPGERATLSCRASQSVKSYLAWYQQKPGQAPRLLIYYASSRATGIPARFSGSGSGTDFTLTISSLEPEDFAVYYCQQYSESPYTFGQGTKLEIK
notes: humanized variant of 21B10; isotype control hIgG4; also called Var8; variant no 8
With B1, the Absorbance in experiment [11] came out at 0.412; in experiment [15] it was 0.59; with NRP-1 peptide (Npep) [18], 0.475. In addition, the percentage of binding in experiment [12] was determined as 75.6%; in experiment [14] it was 13.3%; in experiment [16], 61.5%; in experiment [19] it was 9.88%. The “delta (% of control)” value in [13] is -3.42%; in experiment [17] it was -14.1%.

B2: variant 6 a-NRP1_LEP n° 1 (antibody, V domains shown)
VH: EVQLVESGGGLVQPGGSLRLSCAASGFTFSSYSMHWVRQAPGKGLEWVSYISSGSSTIHYADSVKGRFTISRDNAKNSLYLQMNSLRAEDTAVYYCARRHYGSSRYWYFDVWGQGTTVTVSS
VL: DIQMTQSPSTLSASVGDRVTITCRASQSIKSYLAWYQQKPGKAPKLLIYYASSLASGVPSRFSGSGSGTEFTLTISSLQPDDFATYYCQQYGESSYTFGQGTKLEIK
notes: humanized variant of 21B10; isotype control hIgG4; also called Var6; variant no 6
Consider B2, for which the Absorbance amounted to 0.72 in experiment [11], 0.799 in experiment [15] and 0.684 with NRP-1 peptide (Npep) [18]. The percentage of binding in experiment [12] is 85.3%; in [14], 13.1%; in experiment [16], 69.1%; in experiment [19] it was 11.5%. Further, the “delta (% of control)” value in experiment [13] was -1.6%; in experiment [17], -16.2%.

B3: a-NRP1_SEM (antibody, from another filing, V domains shown)
VH: EVQLVESGGGLVQPGGSLRLSCAASGFSFSSEPISWVRQAPGKGLEWVSSITGKNGYTYYADSVKGRFTISADTSKNTAYLQMNSLRAEDTAVYYCARWGKKVYGMDVWGQGTLVTVSS
VL: DIQMTQSPSSLSASVGDRVTITCRASQSISSYLAWYQQKPGKAPKLLIYGASSRASGVPSRFSGSGSGTDFTLTISSLQPEDFATYYCQQYMSVPITFGQGTKVEIKR
On to B3, for which the delta (% of control) in [20] is 1.1%; in experiment [22], -0.1%. For the same molecule, the percentage of binding in experiment [21] came to 97.7%; in [23], 96.6%; in experiment [24], 100%; in experiment [25], 99.9%. Besides, the Absorbance with NRP-1 peptide (Npep) [2] came out at 0.063; in experiment [3] it was 0.407; in experiment [7] it was 0.431.

For the origin of these results see patent US20260226176A1 (THERANOVIR, published 2026).
